# Test results reported in patent US20260216326A1 (PROMETHEUS BIOSCIENCES, published 2026).
# T1: human TL1A (human, UniProt O95150 72-251, limits assumed)
# T1 construct: also called tumor necrosis factor-like cytokine 1A; TNFSF15
# T1 sequence (looked up): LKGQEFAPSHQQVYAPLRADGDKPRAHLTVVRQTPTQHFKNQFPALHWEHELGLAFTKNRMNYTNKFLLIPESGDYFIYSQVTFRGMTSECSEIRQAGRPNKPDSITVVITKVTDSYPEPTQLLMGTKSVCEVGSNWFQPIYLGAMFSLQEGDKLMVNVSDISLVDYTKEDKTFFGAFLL
# Molecular target: T1, human TL1A
# Experiment: ELISA titration on plate-coated human TL1A, unpurified culture supernatant
row,Kd,Binder
1,58 pM,"A164 (antibody, IgG1, V domains shown) VH: QVQLVQSGAEVKKPGASVKVSCKASGFDIQDTYMHWVRQRPGQGLEWMGRIDPASGHTKYDPKFQVRVTMTTDTSTSTAYLELSSLRSEDTAVYYCARSGGLPDVWGQGTTVTVSS VL: EIVLTQSPGTLSLSPGERATLSCRASSSVSYMYWYQQKPGQAPRLLIYATSNLASGIPDRFSGSGSGTDFTLTISRLEPEDFAVYYCQQWKGNPRTFGGGTKLEIK"
2,57 pM,"A166 (antibody, IgG1, V domains shown) VH: QVQLVQSGAEVKKPGASVKVSCKASGFDIQDTYMHWVKQRPGQGLEWIGRIDPASGHTKYDPKFQVRVTMTTDTSTSTAYLELSSLRSEDTAVYYCARSGGLPDVWGQGTTVTVSS VL: EIVLTQSPGTLSLSPGERATLSCRASSSVSYMYWYQQKPGQAPRPWIYATSNLASGIPDRFSGSGSGTDFTLTISRLEPEDFAVYYCQQWEGNPRTFGGGTKLEIK"
3,45 pM,"A175 (antibody, IgG1, V domains shown) VH: QVQLVQSGAEVKKPGASVKVSCKASGFDIQDTYMHWVKQAPGQGLEWMGRIDPASGHIKYDPKFQGRVTMTRDTSTSTVYMELSSLRSEDTAVYYCARSGGLPDWWGQGTTVTVSS VL: EIVLTQSPGTLSLSPGERATLSCRASSSVSYMYWYQQKPGQAPRPLIYATSNLASGIPDRFSGSGSGTDFTLTISRLEPEDFAVYYCQQWEGNPRTFGGGTKLEIK"
4,61 pM,"A184 (antibody, IgG1, V domains shown) VH: QVQLVQSGAEVKKPGASVKVSCKASGFDIQDTYMHWVKQRPGQGLEWIGRIDPASGHTKYDPKFQVRATITRDTSTSTAYLELSSLRSEDTAVYYCARSGGLPDVWGQGTTVTVSS VL: EIVLTQSPGTLSLSPGERATLSCRASSSVSYMYWYQQKPGQAPRLLIYATSNLASGIPDRFSGSGSGTDFTLTISRLEPEDFAVYYCQQWEGNPRTFGGGTKLEIK"
5,56 pM,"A185 (antibody, IgG1, V domains shown) VH: QVQLVQSGAEVKKPGASVKVSCKASGFDIQDTYMHWVKQRPGQGLEWIGRIDPASGHTKYDPKFQVRATMTRDTSTSTAYLELSSLRSEDTAVYYCARSGGLPDVWGQGTTVTVSS VL: EIVLTQSPGTLSLSPGERATLSCRASSSVSYMYWYQQKPGQAPRLLIYATSNLASGIPDRFSGSGSGTDFTLTISRLEPEDFAVYYCQQWEGNPRTFGGGTKLEIK"
6,40 pM,"A172 (antibody, IgG1, V domains shown) VH: QVQLVQSGAEVKKPGASVKVSCKASGFDIQDTYMHWVRQAPGQGLEWMGRIDPASGHIKYDPKFQGRATMTRDTSTSTVYMELSSLRSEDTAVYYCARSGGLPDWWGQGTTVTVSS VL: EIVLTQSPGTLSLSPGERATLSCRASSSVSYMYWYQQKPGQAPRPWIYATSNLASGIPDRFSGSGSGTDFTLTISRLEPEDFAVYYCQQWEGNPRTFGGGTKLEIK"
7,59 pM,"A165 (antibody, IgG1, V domains shown) VH: QVQLVQSGAEVKKPGASVKVSCKASGFDIQDTYMHWVRQAPGQGLEWIGRIDPASGHTKYDPKFQVRATITTDTSTSTAYLELSSLRSEDTAVYYCARSGGLPDVWGQGTTVTVSS VL: EIVLTQSPGTLSLSPGERATLSCRASSSVSYMYWYQQKPGQAPRPWIYATSNLASGIPDRFSGSGSGTDFTLTISRLEPEDFAVYYCQQWEGNPRTFGGGTKLEIK"
8,49 pM,"A170 (antibody, IgG1, V domains shown) VH: QVQLVQSGAEVKKPGASVKVSCKASGFDIQDTYMHWVRQAPGQGLEWMGRIDPASGHIKYDPKFQGRVTMTRDTSTSTAYMELSSLRSEDTAVYYCARSGGLPDWWGQGTTVTVSS VL: EIVLTQSPGTLSLSPGERATLSCRASSSVSYMYWYQQKPGQAPRPWIYATSNLASGIPDRFSGSGSGTDFTLTISRLEPEDFAVYYCQQWEGNPRTFGGGTKLEIK"
9,43 pM,"A178 (antibody, IgG1, V domains shown) VH: QVQLVQSGAEVKKPGASVKVSCKASGFDIQDTYMHWVRQAPGQGLEWMGRIDPASGHIKYDPKFQGRATMTRDTSTSTVYMELSSLRSEDTAVYYCARSGGLPDWWGQGTTVTVSS VL: EIVLTQSPGTLSLSPGERATLSCRASSSVSYMYWYQQKPGQAPRPLIYATSNLASGIPDRFSGSGSGTDFTLTISRLEPEDFAVYYCQQWEGNPRTFGGGTKLEIK"
10,40 pM,"A173 (antibody, IgG1, V domains shown) VH: QVQLVQSGAEVKKPGASVKVSCKASGFDIQDTYMHWVKQAPGQGLEWMGRIEPASGHIKYDPKFQGRATMTRDTSTSTVYMELSSLRSEDTAVYYCARSGGLPDWWGQGTTVTVSS VL: EIVLTQSPGTLSLSPGERATLSCRASSSVSYMYWYQQKPGQAPRPWIYATSNLASGIPDRFSGSGSGTDFTLTISRLEPEDFAVYYCQQWEGNPRTFGGGTKLEIK"
11,47 pM,"A169 (antibody, IgG1, V domains shown) VH: QVQLVQSGAEVKKPGASVKVSCKASGFDIQDTYMHWVKQAPGQGLEWMGRIDPASGHIKYDPKFQGRVTMTRDTSTSTVYMELSSLRSEDTAVYYCARSGGLPDWWGQGTTVTVSS VL: EIVLTQSPGTLSLSPGERATLSCRASSSVSYMYWYQQKPGQAPRPWIYATSNLASGIPDRFSGSGSGTDFTLTISRLEPEDFAVYYCQQWEGNPRTFGGGTKLEIK"
12,42 pM,"A167 (antibody, IgG1, V domains shown) VH: QVQLVQSGAEVKKPGASVKVSCKASGFDIQDTYMHWVKQRPGQGLEWIGRIDPASGHTKYDPKFQVRVTITRDTSTSTAYLELSSLRSEDTAVYYCARSGGLPDVWGQGTTVTVSS VL: EIVLTQSPGTLSLSPGERATLSCRASSSVSYMYWYQQKPGQAPRPWIYATSNLASGIPDRFSGSGSGTDFTLTISRLEPEDFAVYYCQQWEGNPRTFGGGTKLEIK"
13,50 pM,"A171 (antibody, IgG1, V domains shown) VH: QVQLVQSGAEVKKPGASVKVSCKASGFDIQDTYMHWVRQAPGQGLEWMGRIDPASGHIKYDPKFQGRATITTDTSTSTVYMELSSLRSEDTAVYYCARSGGLPDWWGQGTTVTVSS VL: EIVLTQSPGTLSLSPGERATLSCRASSSVSYMYWYQQKPGQAPRPWIYATSNLASGIPDRFSGSGSGTDFTLTISRLEPEDFAVYYCQQWEGNPRTFGGGTKLEIK"
14,79 pM,"A179 (antibody, IgG1, V domains shown) VH: QVQLVQSGAEVKKPGASVKVSCKASGFDIQDTYMHWVKQAPGQGLEWMGRIEPASGHIKYDPKFQGRATMTRDTSTSTVYMELSSLRSEDTAVYYCARSGGLPDWWGQGTTVTVSS VL: EIVLTQSPGTLSLSPGERATLSCRASSSVSYMYWYQQKPGQAPRPLIYATSNLASGIPDRFSGSGSGTDFTLTISRLEPEDFAVYYCQQWEGNPRTFGGGTKLEIK"
15,43 pM,"A174 (antibody, IgG1, V domains shown) VH: QVQLVQSGAEVKKPGASVKVSCKASGFDIQDTYMHWVRQAPGQGLEWMGRIEPASGHIKYDPKFQGRATMTRDTSTSTAYMELSSLRSEDTAVYYCARSGGLPDWWGQGTTVTVSS VL: EIVLTQSPGTLSLSPGERATLSCRASSSVSYMYWYQQKPGQAPRPWIYATSNLASGIPDRFSGSGSGTDFTLTISRLEPEDFAVYYCQQWEGNPRTFGGGTKLEIK"
16,67 pM,"A182 (antibody, IgG1, V domains shown) VH: QVQLVQSGAEVKKPGASVKVSCKASGFDIQDTYMHWVKQAPGQGLEWIGRIDPASGHTKYDPKFQVRATITTDTSTSTAYLELSSLRSEDTAVYYCARSGGLPDVWGQGTTVTVSS VL: EIVLTQSPGTLSLSPGERATLSCRASSSVSYMYWYQQKPGQAPRLLIYATSNLASGIPDRFSGSGSGTDFTLTISRLEPEDFAVYYCQQWEGNPRTFGGGTKLEIK"
17,48 pM,"A176 (antibody, IgG1, V domains shown) VH: QVQLVQSGAEVKKPGASVKVSCKASGFDIQDTYMHWVRQAPGQGLEWMGRIDPASGHIKYDPKFQGRVTMTRDTSTSTAYMELSSLRSEDTAVYYCARSGGLPDWWGQGTTVTVSS VL: EIVLTQSPGTLSLSPGERATLSCRASSSVSYMYWYQQKPGQAPRPLIYATSNLASGIPDRFSGSGSGTDFTLTISRLEPEDFAVYYCQQWEGNPRTFGGGTKLEIK"
18,62 pM,"A168 (antibody, IgG1, V domains shown) VH: QVQLVQSGAEVKKPGASVKVSCKASGFDIQDTYMHWVKQRPGQGLEWIGRIDPASGHTKYDPKFQVRATMTRDTSTSTAYLELSSLRSEDTAVYYCARSGGLPDVWGQGTTVTVSS VL: EIVLTQSPGTLSLSPGERATLSCRASSSVSYMYWYQQKPGQAPRPWIYATSNLASGIPDRFSGSGSGTDFTLTISRLEPEDFAVYYCQQWEGNPRTFGGGTKLEIK"
19,52 pM,"A177 (antibody, IgG1, V domains shown) VH: QVQLVQSGAEVKKPGASVKVSCKASGFDIQDTYMHWVRQAPGQGLEWMGRIDPASGHIKYDPKFQGRATITTDTSTSTVYMELSSLRSEDTAVYYCARSGGLPDWWGQGTTVTVSS VL: EIVLTQSPGTLSLSPGERATLSCRASSSVSYMYWYQQKPGQAPRPLIYATSNLASGIPDRFSGSGSGTDFTLTISRLEPEDFAVYYCQQWEGNPRTFGGGTKLEIK"
20,60 pM,"A181 (antibody, IgG1, V domains shown) VH: QVQLVQSGAEVKKPGASVKVSCKASGFDIQDTYMHWVRQRPGQGLEWIGRIDPASGHTKYDPKFQVRATITTDTSTSTAYLELSSLRSEDTAVYYCARSGGLPDVWGQGTTVTVSS VL: EIVLTQSPGTLSLSPGERATLSCRASSSVSYMYWYQQKPGQAPRLLIYATSNLASGIPDRFSGSGSGTDFTLTISRLEPEDFAVYYCQQWEGNPRTFGGGTKLEIK"
21,58 pM,"A180 (antibody, IgG1, V domains shown) VH: QVQLVQSGAEVKKPGASVKVSCKASGFDIQDTYMHWVRQAPGQGLEWMGRIEPASGHIKYDPKFQGRATMTRDTSTSTAYMELSSLRSEDTAVYYCARSGGLPDWWGQGTTVTVSS VL: EIVLTQSPGTLSLSPGERATLSCRASSSVSYMYWYQQKPGQAPRPLIYATSNLASGIPDRFSGSGSGTDFTLTISRLEPEDFAVYYCQQWEGNPRTFGGGTKLEIK"
22,65 pM,"A183 (antibody, IgG1, V domains shown) VH: QVQLVQSGAEVKKPGASVKVSCKASGFDIQDTYMHWVKQRPGQGLEWMGRIDPASGHTKYDPKFQVRATITTDTSTSTAYLELSSLRSEDTAVYYCARSGGLPDVWGQGTTVTVSS VL: EIVLTQSPGTLSLSPGERATLSCRASSSVSYMYWYQQKPGQAPRLLIYATSNLASGIPDRFSGSGSGTDFTLTISRLEPEDFAVYYCQQWEGNPRTFGGGTKLEIK"
